# In publication PMC3767815, “A Novel α-L-Arabinofuranosidase of Family 43 Glycoside Hydrolase (Ct43Araf) from Clostridium thermocellum” (PLoS ONE, 2013):
# B1: Ct43Araf (Acetivibrio thermocellus ATCC 27405) (protein)
# chain: AADYPIFSQRFTADPAAVVYNGRLYIYCSHDSDATPGQSTYNIPDITCISTDDLKNWTDHGEVFNAKRDSRWASVSWAPSIVYRNNKFYLYYGNGGNGIGVAVSDSPTGPFKDPLPGPLVSWNTPGVQPAQNMWLFDPGVFVDDDGQAYMYFGGNGQNNIRVIKLGNDMISTVGSAMTMSAPRFFEAAYMHKYNGKYYFSYASDFSQGASKIEYMMSDKPTTGFQYKGVILPQPPDNYSNNNHHAIVEYKGNWYVVYHNRTVAKQRGLDPVYQRNVCIDQMFYNADGTIKQVVPTVDGLKQLKYVDPYTKNLAVTMHKESGIETEECSEGGRNVAFIENGDWIQVKGVDFGNVGPTSFEARVASATNGGNIEIRLDSPTGTLIGTCKVEGTGDWQKWVTKTCSVSKVTGVHDLFFRFTGGSGYLFNFSWWKFNSDATPTPTPPPQPSTVPVTERSAFSKIEVEDFNDIKSSTIQKIGTPNGGSGIGYIENGDWLAYKNIDFGNGATTFKALVASTLSPNIELRLDSPTGTLIGTLKVAATGGFNAYEEQSCNISKVTGKHDLYLVFSGAVNIDWFTFGGSSGII
# notes: CtGH43-CtCBM6A-CtCBM6B; His6-tagged, pET-21a(+), E. coli BL21(DE3); 63 kDa; gene range printed 1545911 to 1547651; modules 903, 405 and 402 bp; forward primer starts at AADYP
# B2: CtGH43 (Acetivibrio thermocellus ATCC 27405) (protein)
# chain: AADYPIFSQRFTADPAAVVYNGRLYIYCSHDSDATPGQSTYNIPDITCISTDDLKNWTDHGEVFNAKRDSRWASVSWAPSIVYRNNKFYLYYGNGGNGIGVAVSDSPTGPFKDPLPGPLVSWNTPGVQPAQNMWLFDPGVFVDDDGQAYMYFGGNGQNNIRVIKLGNDMISTVGSAMTMSAPRFFEAAYMHKYNGKYYFSYASDFSQGASKIEYMMSDKPTTGFQYKGVILPQPPDNYSNNNHHAIVEYKGNWYVVYHNRTVAKQRGLDPVYQRNVCIDQMFYNADGTIKQVVPTVDGLKQ
# notes: truncated: N-terminal GH43 catalytic module only (903 bp), both CBM6 removed; His6-tagged, pET-28a(+), E. coli BL21(DE3) pLysS; 34 kDa
# Tests used:
# purified protein [1] = substrate: O=[N+]([O-])c1ccc(O[C@@H]2OC[C@H](O)[C@H](O)[C@H]2O)cc1; assay: purified protein; assay type: biochemical, Acetivibrio thermocellus; conditions: 50°C, 20 mM sodium phosphate pH 5.7 (table note; methods print 50 mM sodium phosphate pH 6.0), substrate 20–500 µM
# purified protein [2] = substrate: O=[N+]([O-])c1ccc(O[C@@H]2O[C@@H](CO)[C@H](O)[C@H]2O)cc1; assay: purified protein; assay type: biochemical, Acetivibrio thermocellus; conditions: 50°C, 20 mM sodium phosphate pH 5.7 (table note; methods print 50 mM sodium phosphate pH 6.0), substrate 20–500 µM
protein,measurement,setting,value
B1,Km,purified protein [1],0.093 ± 0.003 mg/mL
same,kcat,purified protein [1],3.5 ± 0.0783 s⁻¹
same,Km,purified protein [2],0.05 ± 0.002 mg/mL
same,kcat,purified protein [2],4.717 ± 0.0333 s⁻¹
B2,Km,purified protein [1],0.097 ± 0.004 mg/mL
same,kcat,purified protein [1],3.533 ± 0.0333 s⁻¹
same,Km,purified protein [2],0.04 ± 0.004 mg/mL
same,kcat,purified protein [2],4.783 ± 0.0167 s⁻¹
